Patent US7700101B2, “Reagents and method for modulating Dkk-mediated interactions” (Wyeth, priority 2001, dated 2010)
Entries after “also recorded” stand apart in the source; their conditions may differ.

Legend:
LRP5 = target: T1, LRP5 (Homo sapiens, UniProt O75197); experiment: TCF-luciferase assay in HOB-03-CE6 cells, LRP5; format: cell-based
T1 construct: Site-directed mutants of LRP5 were generated in the full-length human LRP5 cDNA; expressed in transfected cells; host or cells: HOB-03-CE6 osteoblastic cells; U2OS osteosarcoma cells; HEK293
T1 sequence (O75197 32-1615): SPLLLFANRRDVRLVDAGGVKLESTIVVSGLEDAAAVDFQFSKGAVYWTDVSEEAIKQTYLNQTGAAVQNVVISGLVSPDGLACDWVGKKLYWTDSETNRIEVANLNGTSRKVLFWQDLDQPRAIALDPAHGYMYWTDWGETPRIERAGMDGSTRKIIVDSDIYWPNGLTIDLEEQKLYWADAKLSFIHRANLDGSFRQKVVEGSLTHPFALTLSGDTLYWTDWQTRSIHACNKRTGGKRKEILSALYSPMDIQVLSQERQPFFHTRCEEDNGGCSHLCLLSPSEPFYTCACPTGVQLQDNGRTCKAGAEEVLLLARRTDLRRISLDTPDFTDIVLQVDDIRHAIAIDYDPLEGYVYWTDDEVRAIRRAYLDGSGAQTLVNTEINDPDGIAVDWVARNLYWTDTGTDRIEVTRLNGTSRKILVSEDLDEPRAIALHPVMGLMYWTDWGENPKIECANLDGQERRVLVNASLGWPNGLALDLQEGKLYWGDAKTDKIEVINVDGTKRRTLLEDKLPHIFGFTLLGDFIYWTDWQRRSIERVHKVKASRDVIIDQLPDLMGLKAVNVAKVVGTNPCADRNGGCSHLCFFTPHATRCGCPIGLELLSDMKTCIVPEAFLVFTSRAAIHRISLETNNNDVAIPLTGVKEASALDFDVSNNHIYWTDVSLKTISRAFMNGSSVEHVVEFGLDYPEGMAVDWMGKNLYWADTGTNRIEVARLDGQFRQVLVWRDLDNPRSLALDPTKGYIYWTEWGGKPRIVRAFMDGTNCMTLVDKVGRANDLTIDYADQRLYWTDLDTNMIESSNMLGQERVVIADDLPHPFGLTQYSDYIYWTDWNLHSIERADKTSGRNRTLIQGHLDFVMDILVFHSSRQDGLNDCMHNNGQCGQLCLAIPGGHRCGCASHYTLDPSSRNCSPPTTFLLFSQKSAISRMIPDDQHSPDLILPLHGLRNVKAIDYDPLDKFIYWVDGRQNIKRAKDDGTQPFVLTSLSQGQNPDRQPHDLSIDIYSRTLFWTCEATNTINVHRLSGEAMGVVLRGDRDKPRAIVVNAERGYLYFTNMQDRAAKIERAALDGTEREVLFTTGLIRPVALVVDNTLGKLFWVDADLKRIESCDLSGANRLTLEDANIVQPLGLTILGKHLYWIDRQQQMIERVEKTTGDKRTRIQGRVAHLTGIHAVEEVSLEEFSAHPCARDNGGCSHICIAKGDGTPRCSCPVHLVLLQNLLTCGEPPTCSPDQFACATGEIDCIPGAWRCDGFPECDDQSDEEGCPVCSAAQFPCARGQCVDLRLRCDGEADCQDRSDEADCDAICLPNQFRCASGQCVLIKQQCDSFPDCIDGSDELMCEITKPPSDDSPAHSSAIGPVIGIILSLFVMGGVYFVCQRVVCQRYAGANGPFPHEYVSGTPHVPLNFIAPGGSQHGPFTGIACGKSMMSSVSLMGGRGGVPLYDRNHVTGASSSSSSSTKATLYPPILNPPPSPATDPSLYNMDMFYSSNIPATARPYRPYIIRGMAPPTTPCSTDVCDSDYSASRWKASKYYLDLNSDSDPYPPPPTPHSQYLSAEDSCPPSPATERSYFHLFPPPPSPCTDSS
Description: HOB-03-CE6 osteoblastic cells developed by Wyeth Ayerst (Philadelphia, Pa.) were seeded into 24-well plates at 150,000 cells per well in 1 ml of the growth media (D-MEM/F12 phenol red-free) containing 10% (v/v) heat-inactivated FBS, 1×penicillin streptomycin, and 1X Glutamax-1, and incubated overnight at 34° C. The following day, the cells were transfected using Lipofectamine 2000® (as described by the manufacturer, Invitrogen) in OptiMEM (Invitrogen) with 0.35 μg/well of LRP5, HBM, or control plasmid DNA (empty vector pcDNA3.1) and either Wnt1 or Wnt3 a plasmid DNA. Similar experiments were performed with LRP6 plasmid DNA (0.35 μg/well) or a control pEDdpc4 empty vector. […] All wells were transfected with 0.025 μg/well of CMV beta-galactosidase plasmid DNA and 0.35 μg/well 16X TCF(ASyluciferase reporter DNA (developed by Ramesh Bhat, Wyeth-Ayerst (Philadelphia, Pa.)). After 4 hours of incubation, the cells were rinsed and 1 ml of fresh growth media was added to each well. The cells were cultured overnight at 34° C., followed by a wash and a change of media. Cells were cultured for an additional 18-24 hours at 37° C. Cells were then lysed with 50 μl/well of 1X lysis buffer. The extracts were assayed for beta-galactosidase activity (Galacto Reaction Buffer Diluent & Light Emission Accelerator, Tropix) using 5 μl extract+50 μl beta-galactosidase diluent and luciferase activity (Luciferase Assay Reagent, Promega) using 20 μl extract.

HBM = target: T2, HBM (Homo sapiens, UniProt O75197, G171V); experiment: Cell-based TCF reporter high-throughput assay, HBM cDNA; conditions: U2OS cells, Wnt1 or Wnt3a/Wnt1 co-transfected, FIG. 20
T2 construct: Full length Zmax/LRP5 and HBM ORF cDNA; expressed in transfected cells; host or cells: HOB-03-CE6 osteoblastic cells; U2OS osteosarcoma cells; HEK293
T2 sequence (O75197 32-1615 G171V): as the sequence (O75197 32-1615) above, with G140V counted along it
Text: To develop a high throughput assay, the TCF-luciferase assay described in Example 7 was modified utilizing low level expression of endogenous LRP5/6 in U2OS and HEK293 cells. However, HOB-03-CE6 cells and any other cells which show a differential response to Dkk depending on whether LRP5, LRP6 or HBM are expressed. Using U2OS (human osteosarcoma) and HEK293 (ATCC) cells, the TCF-luciferase and tk-Renilla reporter element constructs were co-transfected along with Wnt3a/1 and Dkk. Wnt3a alone, by using endogenous LRP5/6, was able to stimulate TCF reporter gene activation. When Dkk, is co-transfected with Wnt3a/Wnt 1 and reporters (TCF-luci and tk-Renilla), DEkk represses reporter element activity. In addition, the TCF-luci signal is activated by Wnt3a/Wnt1 can be repressed by the addition of Dkk-enriched conditioned media to the cells containing Wnt3a/Wnt1 and reporters.
The Dkk-mediated repression of the reporter is dependent upon the concentration of transfected Dkk cDNA or on the amount of Dkk-conditioned media added. In addition, the Dkk-mediated reporter suppression can be altered by the co-transfection of LRP5, LRP6, and HBM cDNAs in the U2OS or HEK293 cells. In general, U2OS cells show greater sensitivity to Dkk-mediated reporter suppression than that in HEK-293 cells. […]

endogenous LRP5/6 = experiment: Cell-based TCF reporter high-throughput assay, endogenous LRP5/6; design: species or system human; conditions: U2OS cells, no Wnt3a/Wnt1 transfection, FIG. 21
Text: To develop a high throughput assay, the TCF-luciferase assay described in Example 7 was modified utilizing low level expression of endogenous LRP5/6 in U2OS and HEK293 cells. […] Using U2OS (human osteosarcoma) and HEK293 (ATCC) cells, the TCF-luciferase and tk-Renilla reporter element constructs were co-transfected along with Wnt3a/1 and Dkk.

[1] = test system: Zmax/LRP5-mediated Wnt signaling; experiment: Xenopus embryo assay, hDkk-1 modulation of Zmax/LRP5+Wnt5a signaling; format: in vivo; conditions: hDkk-1 250 pg, FIG. 11
Description: mRNA for microinjection into Xenopus embryos is generated by in vitro transcription using the CDNA constructs in the pCS2^+ vector described above as template. RNA is synthesized using the Ambion mMessage mMachine high yield capped RNA transcription kit (Cat. #1340) following the manufacturer's specifications for the Sp6 polymerase reactions. RNA products were brought up to a final volume of 50 μl in sterile, glass-distilled water and purified over Quick Spin-Columns for Radiolabelled RNA Purification G50-Sephadex (Roche, Cat. #1274015) following the manufacturer's specifications. The resulting eluate was finally extracted with phenol:chloroform:isoamyl alcohol and isopropanol precipitated using standard protocols (Sambrook et al., 1989). Final RNA volumes were approximately 50 μl. RNA concentration was determined by absorbance values at 260 nm and 280 nm. RNA integrity was visualized by ethidium bromide staining of denaturing (formaldehyde) agarose gel electrophoresis (Sambrook et al., 1989). Various amounts of RNA (2 pg to 1 ng) are injected into the ventral blastomere of the 4- or 8-cell Xenopus embryo. These protocols are described in Moon et al., Technique-J. of Methods in Cell and Mol. Biol. 1: 76-89 (1989), and Peng, Meth. Cell. Biol. 36: 657-62 (1991). […]

Q: Which results are given for “Dkk-1: Dickkopf-1 protein, antagonist of the Wnt pathway; expressed from human cDNA (RNA or plasmid)”?
A: LRP5/Wnt1 mediated TCF-luciferase activity (LRP5; Wnt1, FIG. 14): significantly antagonized TCF-luciferase activity; also recorded: had no effect on LRP5 or HBM mediated TCF-luciferase activity; LRP5/Wnt3a mediated TCF-luciferase activity (LRP5; Wnt3a, FIG. 15): able to antagonize LRP5/Wnt3a; Dkk-mediated repression of HBM signaling (TCF reporter) (HBM): not efficiently inhibited; also recorded: little or no effect; Dkk-mediated repression of HBM signaling (TCF reporter) (HBM; listed as Dkk1): least; modulation of TCF signal without Wnt DNA transfection (endogenous LRP5/6): can be modulated; modulation of TCF signal without Wnt DNA transfection (endogenous LRP5/6; listed as Dkk1): can repress TCF-luci; repression of Zmax/LRP5-mediated Wnt signaling [1]: repressed
